Changes are numbered by the printed parent chain. Names and notes keep the numbering of the source.
Tests used:
[1] = target: heat-aggregated E. coli proteins; test: biolayer interferometry (BLI); conditions: value read at the end of the association phase (~60 min), read off a plot
[2] = target: the molecule itself; test: dynamic light scattering; 10 µM sHsp in buffer F (50 mM Tris pH 7.5, 150 mM KCl, 20 mM MgCl2, 2.5 mM DTT); oligomer size measured at 25 °C and 44 °C in repeated cycles
[3] = target: T1, His-tagged luciferase, heat-aggregated on the BLI sensor (firefly, UniProt P08659 1-550 = luciferase); test: BLI; ForteBio BLItz; His-tagged luciferase aggregated on the sensor; 5 µM sHsp (preincubated 10 min at 44 °C) bound for 10 min, then buffer F or Hsp70 system (0.7 µM DnaK, 0.28 µM DnaJ, 0.21 µM GrpE, 5 mM ATP) for 1 hr; room temperature; conditions: both partners purified
T1 construct: firefly luciferase, His-tagged construct of Obuchowski et al., 2019; anchoring layer attached to NTA sensors in 4.5 M urea, then aggregate formed at 44 °C; also called aggregated luciferase; luciferase aggregates; source: purified as described previously (Obuchowski et al., 2019)
T1 sequence (P08659 whole entry): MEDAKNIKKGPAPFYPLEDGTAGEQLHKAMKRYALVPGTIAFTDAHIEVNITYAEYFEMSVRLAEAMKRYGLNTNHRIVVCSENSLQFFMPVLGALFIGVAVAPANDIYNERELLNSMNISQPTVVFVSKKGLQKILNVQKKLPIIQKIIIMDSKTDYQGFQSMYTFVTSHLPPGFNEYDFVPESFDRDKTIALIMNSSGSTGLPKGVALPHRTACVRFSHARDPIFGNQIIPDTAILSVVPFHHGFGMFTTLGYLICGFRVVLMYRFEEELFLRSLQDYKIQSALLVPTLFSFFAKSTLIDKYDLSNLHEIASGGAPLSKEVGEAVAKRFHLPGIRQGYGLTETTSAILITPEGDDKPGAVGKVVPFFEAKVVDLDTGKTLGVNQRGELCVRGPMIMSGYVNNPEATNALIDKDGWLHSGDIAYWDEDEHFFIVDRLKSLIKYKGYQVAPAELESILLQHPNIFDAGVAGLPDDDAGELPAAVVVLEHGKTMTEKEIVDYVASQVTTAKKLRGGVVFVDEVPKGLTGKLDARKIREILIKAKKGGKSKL

Molecule: IbpA from Erwinia amylovora (from UniProt A0ABX7MII2) H67Q; D110G
- response ([1]; parent: est. 0.91): 1.4 nm

Molecule: IbpA from Escherichia coli (from UniProt P0C054) Q66H; G109D
- response ([1]; parent: est. 2.7): 1.5 nm

B1: IbpA_(E.coli) Q66H G109D (natural protein, E. coli, UniProt P0C054 1-137, looked up)
chain: MRNFDLSPLYRSAIGFDRLFNHLENNQSQSNGGYPPYNVELVDENHYRIAIAVAGFAESELEITAHDNLLVVKGAHADEQKERTYLYQGIAERNFERKFQLAENIHVRDANLVNGLLYIDLERVIPEAKKPRRIEIN
notes: IbpA, small heat shock protein of E. coli, with AncA1-like substitutions; source: purified
- binding result [2]: binds
- binding result [3]: binds

B2: IbpA from Escherichia coli (natural protein, E. coli, UniProt P0C054 1-137, looked up)
chain: B1 chain with H66Q, D109G
notes: IbpA, small heat shock protein of E. coli; also called IbpA_(E. coli); IbpAEc; source: purified as described previously (Ratajczak et al., 2009)
- binding result [3]: binds

Source: article PMC10708888, “Evolution towards simplicity in bacterial small heat shock protein system” (eLife, 2023)
